Publication PMC4837482, “The complex binding mode of the peptide hormone H2 relaxin to its receptor RXFP1” (Nature Communications, 2016)
Residue numbers refer to the chain shown, from its start.

Key:
Experiment in all cases: cAMP activity assay (pCRE β-galactosidase reporter), transfected HEK293T cells
Type in all cases: cell-based
[1] = target: T1, RXFP1 E67A^ins (Homo sapiens, UniProt Q9HBX9, INS89A); conditions: construct E67A^ins, ±s.e.m.
T1 construct: transiently transfected human embryonic kidney (HEK) 293T cells expressing full-length RXFP1 and mutants; expressed in transfected cells; host or cells: HEK293T
T1 sequence (Q9HBX9 with tags, fused parts or gaps INS89A limits assumed): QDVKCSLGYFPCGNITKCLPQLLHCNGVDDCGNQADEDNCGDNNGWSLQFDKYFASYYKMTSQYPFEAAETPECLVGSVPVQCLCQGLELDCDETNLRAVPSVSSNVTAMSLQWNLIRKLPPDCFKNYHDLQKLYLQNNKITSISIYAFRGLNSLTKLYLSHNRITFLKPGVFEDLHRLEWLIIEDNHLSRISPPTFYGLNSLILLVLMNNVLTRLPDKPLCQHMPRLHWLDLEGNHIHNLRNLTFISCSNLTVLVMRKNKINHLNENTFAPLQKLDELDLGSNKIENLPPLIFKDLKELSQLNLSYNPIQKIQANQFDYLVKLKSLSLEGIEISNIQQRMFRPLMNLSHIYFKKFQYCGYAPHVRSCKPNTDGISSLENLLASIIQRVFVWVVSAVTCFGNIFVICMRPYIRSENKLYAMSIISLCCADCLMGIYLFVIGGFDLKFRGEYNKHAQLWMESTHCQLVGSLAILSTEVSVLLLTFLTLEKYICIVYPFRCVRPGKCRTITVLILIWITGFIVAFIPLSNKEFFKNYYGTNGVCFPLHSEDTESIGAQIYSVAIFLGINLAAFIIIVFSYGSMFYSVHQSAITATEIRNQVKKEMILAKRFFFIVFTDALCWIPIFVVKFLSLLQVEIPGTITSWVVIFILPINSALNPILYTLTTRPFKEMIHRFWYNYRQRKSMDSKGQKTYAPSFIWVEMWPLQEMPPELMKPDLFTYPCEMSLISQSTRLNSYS
Procedure, shortened: (§1)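 HEK293T cells transfected with mutant RXFP1 and pCRE β-galactosidase reporter, stimulated with H2 relaxin in minimal media/1% DMSO. β-Galactosidase read with chlorophenol red-β-D-galactopyranoside at 570 nm; responses pooled from ≥3 triplicate experiments as % of 5 μM forskolin maximum.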

[2] = target: T2, RXFP1 F54A (Homo sapiens, UniProt Q9HBX9, F76A); conditions: construct F54A, ±s.e.m.
T2 construct: cells expressing full-length RXFP1 and mutants; expressed in transfected cells; host or cells: HEK293T
T2 sequence (Q9HBX9 23-757 F76A limits assumed): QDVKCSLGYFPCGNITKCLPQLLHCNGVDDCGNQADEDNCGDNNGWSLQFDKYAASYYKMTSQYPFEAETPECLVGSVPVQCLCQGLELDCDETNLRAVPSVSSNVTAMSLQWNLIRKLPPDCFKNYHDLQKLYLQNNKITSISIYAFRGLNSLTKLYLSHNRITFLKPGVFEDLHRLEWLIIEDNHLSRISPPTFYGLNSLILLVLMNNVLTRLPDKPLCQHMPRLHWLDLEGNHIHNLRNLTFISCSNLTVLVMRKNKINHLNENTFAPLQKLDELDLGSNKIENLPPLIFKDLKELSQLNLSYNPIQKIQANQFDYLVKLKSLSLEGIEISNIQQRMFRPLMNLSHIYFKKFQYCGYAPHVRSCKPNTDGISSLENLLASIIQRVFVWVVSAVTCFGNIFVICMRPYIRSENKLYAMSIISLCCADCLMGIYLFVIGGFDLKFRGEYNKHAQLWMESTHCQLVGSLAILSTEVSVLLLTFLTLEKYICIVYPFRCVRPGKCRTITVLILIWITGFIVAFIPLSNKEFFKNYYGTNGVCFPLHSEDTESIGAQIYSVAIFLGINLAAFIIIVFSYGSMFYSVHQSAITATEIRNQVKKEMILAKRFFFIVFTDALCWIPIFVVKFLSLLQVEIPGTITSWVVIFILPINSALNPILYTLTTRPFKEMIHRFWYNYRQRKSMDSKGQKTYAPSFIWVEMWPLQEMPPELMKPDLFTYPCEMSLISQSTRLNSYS
Procedure, shortened: as §1

[3] = target: T3, RXFP1 F66A (Homo sapiens, UniProt Q9HBX9, F88A); conditions: construct F66A, ±s.e.m.
T3 construct: cells expressing full-length RXFP1 and mutants; expressed in transfected cells; host or cells: HEK293T
T3 sequence (Q9HBX9 23-757 F88A limits assumed): T2 sequence (Q9HBX9 23-757 F76A limits assumed) with A54F, F66A
Procedure, shortened: as §1

[4] = percentage of maximum response to 5 μM Forskolin

Question: How did the “H2 relaxin pEC50” value ([1]; cAMP reporter) turn out when “H2 relaxin: two-chain 6-kDa peptide hormone structurally related to insulin; recombinant human gene-2 H2 relaxin provided by Corthera” was run?
Answer: The value was 11.32±0.04 (3).

Question: What about the “H2 relaxin Emax” value [1, 4] of the same substance?
Answer: The value was 110.15±6.43(3) %.

Question: What about the “H2 relaxin pEC50” value ([2]; cAMP reporter) of the same substance?
Answer: Its value is 10.23±0.13 (4).

Question: What about the “H2 relaxin Emax” value [2, 4] of the same substance?
Answer: Its value is 104.89±10.48 (4) %.

Question: What about the “H2 relaxin pEC50” value ([3]; cAMP reporter) of the same substance?
Answer: Its value is 11.20±0.08.

Question: What about the “H2 relaxin Emax” value [3, 4] of the same substance?
Answer: Its value is 88.29±3.52 (3) %.
